The values below come from patent publication US20170247441A1 (Hoffmann-La Roche, published 2017).

T1: human ANG2-RBD-Fc-region fusion (human, UniProt O15123 275-496, limits assumed)
T1 construct: not shown: Fc-region
T1 sequence: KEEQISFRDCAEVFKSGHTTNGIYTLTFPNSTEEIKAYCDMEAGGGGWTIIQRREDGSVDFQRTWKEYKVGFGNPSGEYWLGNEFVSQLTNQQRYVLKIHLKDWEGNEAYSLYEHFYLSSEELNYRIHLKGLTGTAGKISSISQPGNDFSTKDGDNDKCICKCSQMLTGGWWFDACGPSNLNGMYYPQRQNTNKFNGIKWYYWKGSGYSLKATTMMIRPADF

B1: Xang2-0165 (bispecific antibody, human IgG1, kappa, L234A L235A)
heavy 1: not shown
light 1: SYVLTQPPSVSVAPGQTARITCGGNNIGSKSVHWYQQKPGQAPVLVVYDTSDRPSGIPERFSGSNSGNTATLTISRVEAGDEADYYCQVWDSSSDHWVFGGGTKLTVLSSASTKGPSVFPLAPSSKSTSGGTAALGCLVKDYFPEPVTVSWNSGALTSGVHTFPAVLQSSGLYSLSSVVTVPSSSLGTQTYICNVNHKPSNTKVDKKVEPKSC
heavy 2: EVQLVESGGGLVQPGGSLRLSCAASGYDFTHYGMNWVRQAPGKGLEWVGWINTYTGEPTYAADFKRRFTFSLDTSKSTAYLQMNSLRAEDTAVYYCAKYPYYYGTSHWYFDVWGQGTLVTVSSASTKGPSVFPLAPSSKSTSGGTAALGCLVKDYFPEPVTVSWNSGALTSGVHTFPAVLQSSGLYSLSSVVTVPSSSLGTQTYICNVNHKPSNTKVDKKVEPKSCDKTHTCPPCPAPEAAGGPSVFLFPPKPKDTLMASRTPEVTCVVVDVSHEDPEVKFNWYVDGVEVHNAKTKPREEQYNSTYRVVSVLTVLAQDWLNGKEYKCKVSNKALGAPIEKTISKAKGQPREPQVYTLPPCRDELTKNQVSLWCLVKGFYPSDIAVEWESNGQPENNYKTTPPVLDSDGSFFLYSKLTVDKSRWQQGNVFSCSVMHEALHNAYTQKSLSLSPGK
light 2: not shown
notes: ANG2/VEGF bispecific CrossMab CL-CH1, valency for ANG2 1; ANG2 VH: S100dP, G100jA, T30A, T28N; VL: D50T; VEGF: wt2
B2: 0025 (Fab)
heavy: not shown
light: SYVLTQPPSVSVAPGQTARITCGGNNIGSKSVHWYQQKPGQAPVLVVYDDSDRPSGIPERFSGSNSGNTATLTISRVEAGDEADYYCQVWDSSSDHWVFGGGTKLTVLSSASTKGPSVFPLAPSSKSTSGGTAALGCLVKDYFPEPVTVSWNSGALTSGVHTFPAVLQSSGLYSLSSVVTVPSSSLGTQTYICNVNHKPSNTKVDKKVEPKSC
notes: CrossFab CL-CH1, valency 1; differences VH: T28N, T30V; VL: wt
B3: 0042 (Fab)
heavy: not shown
light: SYVLTQPPSVSVAPGQTARITCGGNNIGSKSVHWYQQKPGQAPVLVVYDDSDRPSGIPERFSGSNSGNTATLTISRVEAGDEADYYCQVWDSSSDHWVFGGGTKLTVLSSASTKGPSVFPLAPSSKSTSGGTAALGCLVKDYFPEPVTVSWNSGALTSGVHTFPAVLQSSGLYSLSSVVTVPSSSLGTQTYICNVNHKPSNTKVDKKVEPKSC
notes: CrossFab CL-CH1, valency 1; differences VH: S100dP, G100jA, T28N, T30K; VL: wt
B4: 0060 (Fab)
heavy: not shown
light: SYVLTQPPSVSVAPGQTARITCGGNNIGSKSVHWYQQKPGQAPVLVVYDTSDRPSGIPERFSGSNSGNTATLTISRVEAGDEADYYCQVWDSSSDHWVFGGGTKLTVLSSASTKGPSVFPLAPSSKSTSGGTAALGCLVKDYFPEPVTVSWNSGALTSGVHTFPAVLQSSGLYSLSSVVTVPSSSLGTQTYICNVNHKPSNTKVDKKVEPKSC
notes: CrossFab CL-CH1, valency 1; differences VH: S100dP, G100jA, T28N, T30A, D100bE; VL: D50T
B5: XAng2-0026 (Fab)
heavy: not shown
light: SYVLTQPPSVSVAPGQTARITCGGNNIGSKSVHWYQQKPGQAPVLVVYDDSDRPSGIPERFSGSNSGNTATLTISRVEAGDEADYYCQVWDSSSDHWVFGGGTKLTVLSSASTKGPSVFPLAPSSKSTSGGTAALGCLVKDYFPEPVTVSWNSGALTSGVHTFPAVLQSSGLYSLSSVVTVPSSSLGTQTYICNVNHKPSNTKVDKKVEPKSC
notes: CrossFab CL-CH1, valency 1; differences VH: T28N, T30A; VL: wt
B6: 0061 (Fab)
heavy: not shown
light: SYVLTQPPSVSVAPGQTARITCGGNNIGSKSVHWYQQKPGQAPVLVVYDTSDRPSGIPERFSGSNSGNTATLTISRVEAGDEADYYCQVWDSSSDHWVFGGGTKLTVLSSASTKGPSVFPLAPSSKSTSGGTAALGCLVKDYFPEPVTVSWNSGALTSGVHTFPAVLQSSGLYSLSSVVTVPSSSLGTQTYICNVNHKPSNTKVDKKVEPKSC
notes: CrossFab CL-CH1, valency 1; differences VH: S100dP, G100jA, T28N, T30A, D100bT; VL: D50T
B7: XAng2-0033 (Fab)
heavy: not shown
light: SYVLTQPPSVSVAPGQTARITCGGNNIGSKSVHWYQQKPGQAPVLVVYDDSDRPSGIPERFSGSNSGNTATLTISRVEAGDEADYYCQVWDSSSDHWVFGGGTKLTVLSSASTKGPSVFPLAPSSKSTSGGTAALGCLVKDYFPEPVTVSWNSGALTSGVHTFPAVLQSSGLYSLSSVVTVPSSSLGTQTYICNVNHKPSNTKVDKKVEPKSC
notes: CrossFab CL-CH1, valency 1; differences VH: T28N, S100dP, G100jA; VL: wt
B8: 0057 (Fab)
heavy: not shown
light: SYVLTQPPSVSVAPGQTARITCGGNNIGSKSVHWYQQKPGQAPVLVVYDDSDRPSGIPERFSGSNSGNTATLTISRVEAGDEADYYCQVWDSSSDHWVFGGGTKLTVLSSASTKGPSVFPLAPSSKSTSGGTAALGCLVKDYFPEPVTVSWNSGALTSGVHTFPAVLQSSGLYSLSSVVTVPSSSLGTQTYICNVNHKPSNTKVDKKVEPKSC
notes: CrossFab CL-CH1, valency 1; differences VH: S100dP, G100jA, T28N, T30A, D100bE; VL: wt
B9: XAng2-0017 (Fab)
heavy: not shown
light: SYVLTQPPSVSVAPGQTARITCGGNNIGSKSVHWYQQKPGQAPVLVVYDDSDRPSGIPERFSGSNSGNTATLTISRVEAGDEADYYCQVWDSSSDHWVFGGGTKLTVLSSASTKGPSVFPLAPSSKSTSGGTAALGCLVKDYFPEPVTVSWNSGALTSGVHTFPAVLQSSGLYSLSSVVTVPSSSLGTQTYICNVNHKPSNTKVDKKVEPKSC
notes: CrossFab CL-CH1, valency 1; VL: wt
B10: 0028 (Fab)
heavy: not shown
light: SYVLTQPPSVSVAPGQTARITCGGNNIGSKSVHWYQQKPGQAPVLVVYDDSDRPSGIPERFSGSNSGNTATLTISRVEAGDEADYYCQVWDSSSDHWVFGGGTKLTVLSSASTKGPSVFPLAPSSKSTSGGTAALGCLVKDYFPEPVTVSWNSGALTSGVHTFPAVLQSSGLYSLSSVVTVPSSSLGTQTYICNVNHKPSNTKVDKKVEPKSC
notes: CrossFab CL-CH1, valency 1; differences VH: T30K; VL: wt
B11: XAng2-0155 (Fab)
heavy: not shown
light: QPGLTQPPSVSVAPGQTARITCGGNNIGSKSVHWYQQKPGQAPVLVVYDTSDRPSGIPERFSGSNSGNTATLTISRVEAGDEADYYCQVWDSSSDHYVFGTGTKVTVLSSASTKGPSVFPLAPSSKSTSGGTAALGCLVKDYFPEPVTVSWNSGALTSGVHTFPAVLQSSGLYSLSSVVTVPSSSLGTQTYICNVNHKPSNTKVDKKVEPKSC
notes: CrossFab CL-CH1, valency 1; differences VH: S100dP, G100jA, T28N, T30A; VL: D50T
B12: 0058 (Fab)
heavy: not shown
light: SYVLTQPPSVSVAPGQTARITCGGNNIGSKSVHWYQQKPGQAPVLVVYDDSDRPSGIPERFSGSNSGNTATLTISRVEAGDEADYYCQVWDSSSDHWVFGGGTKLTVLSSASTKGPSVFPLAPSSKSTSGGTAALGCLVKDYFPEPVTVSWNSGALTSGVHTFPAVLQSSGLYSLSSVVTVPSSSLGTQTYICNVNHKPSNTKVDKKVEPKSC
notes: CrossFab CL-CH1, valency 1; differences VH: S100dP, G100jA, T28N, T30A, D100bT; VL: wt
B13: 0027 (Fab)
heavy: not shown
light: SYVLTQPPSVSVAPGQTARITCGGNNIGSKSVHWYQQKPGQAPVLVVYDDSDRPSGIPERFSGSNSGNTATLTISRVEAGDEADYYCQVWDSSSDHWVFGGGTKLTVLSSASTKGPSVFPLAPSSKSTSGGTAALGCLVKDYFPEPVTVSWNSGALTSGVHTFPAVLQSSGLYSLSSVVTVPSSSLGTQTYICNVNHKPSNTKVDKKVEPKSC
notes: CrossFab CL-CH1, valency 1; differences VH: T28N, T30K; VL: wt
B14: 0040 (Fab)
heavy: not shown
light: SYVLTQPPSVSVAPGQTARITCGGNNIGSKSVHWYQQKPGQAPVLVVYDDSDRPSGIPERFSGSNSGNTATLTISRVEAGDEADYYCQVWDSSSDHWVFGGGTKLTVLSSASTKGPSVFPLAPSSKSTSGGTAALGCLVKDYFPEPVTVSWNSGALTSGVHTFPAVLQSSGLYSLSSVVTVPSSSLGTQTYICNVNHKPSNTKVDKKVEPKSC
notes: CrossFab CL-CH1, valency 1; differences VH: S100dP, G100jA, T28N, T30V; VL: wt
B15: XAng2-0156 (Fab)
heavy: not shown
light: QPGLTQPPSVSVAPGQTARITCGGNNIGSKSVHWYQQKPGQAPVLVVYDTSDRPSGIPERFSGSNSGNTATLTISRVEAGDEADYYCQVWDSSSDHYVFGTGTKVTVLSSASTKGPSVFPLAPSSKSTSGGTAALGCLVKDYFPEPVTVSWNSGALTSGVHTFPAVLQSSGLYSLSSVVTVPSSSLGTQTYICNVNHKPSNTKVDKKVEPKSC
notes: CrossFab CL-CH1, valency 1; differences VH: S100dP, G100jA, T28N, T30A, D100bS; VL: D50T
B16: 0074 (Fab)
heavy: not shown
light: SYVLTQPPSVSVAPGQTARITCGGNNIGSKSVHWYQQKPGQAPVLVVYDDSDRPSGIPERFSGSNSGNTATLTISRVEAGDEADYYCQVWDSSSDHWVFGGGTKLTVLSSASTKGPSVFPLAPSSKSTSGGTAALGCLVKDYFPEPVTVSWNSGALTSGVHTFPAVLQSSGLYSLSSVVTVPSSSLGTQTYICNVNHKPSNTKVDKKVEPKSC
notes: CrossFab CL-CH1, valency 1; differences VH: S100dP, G100jA, T28N, T30A, D100bS; VL: wt

For the first assay, the target named is T1, human ANG2-RBD-Fc-region fusion. Kind of assay: SPR, human ANG2; ANG2/VEGF bispecific CrossMab.
Consider B1, for which the Kd stood at 4 nM, the dissociation rate constant (koff) was determined as 0.00112 s⁻¹, the kon is 302000 M⁻¹ s⁻¹ and the “t1/2” value was determined as 619 s.

The next assay has the same target. Kind of assay: SPR, human ANG2-RBD-Fc captured, 1:1 model.
On to B2, for which the off-rate (koff) was found to be 0.0702 s⁻¹, the kon is 1.87e+06 M⁻¹ s⁻¹ and the “t1/2” value amounted to 10 s.

As to B3, the koff was determined as 0.0128 s⁻¹, the kon was found to be 3.22e+06 M⁻¹ s⁻¹ and the “t1/2” value amounted to 54 s.

For the molecule B4, the koff is 0.0786 s⁻¹, the kon turned out to be 3.72e+06 M⁻¹ s⁻¹ and the “t1/2” value was determined as 9 s.

Regarding B5, the koff came to 0.0371 s⁻¹, the kon was determined as 2.03e+06 M⁻¹ s⁻¹ and the “t1/2” value worked out at 19 s.

Regarding B6, the off-rate constant (koff) turned out to be 0.0314 s⁻¹, the kon is 1.8e+06 M⁻¹ s⁻¹ and the “t1/2” value is 22 s.

As for B7, the dissociation rate constant (koff) is 0.00225 s⁻¹, the on-rate (kon) is 753000 M⁻¹ s⁻¹ and the “t1/2” value worked out at 308 s.

For B8, the koff turned out to be 0.0948 s⁻¹, the kon was 3.28e+06 M⁻¹ s⁻¹ and the “t1/2” value was found to be 7 s.

As for B9, the koff was 0.0357 s⁻¹, the kon was 3.03e+06 M⁻¹ s⁻¹ and the “t1/2” value was 19 s.

As to B10, the off-rate (koff) amounted to 0.259 s⁻¹, the kon worked out at 1.81e+06 M⁻¹ s⁻¹ and the “t1/2” value was 3 s.

With B11, the koff stood at 0.0319 s⁻¹, the on-rate (kon) turned out to be 746000 M⁻¹ s⁻¹ and the “t1/2 (S)” value turned out to be 22 s.

For B12, the off-rate constant (koff) worked out at 0.0383 s⁻¹, the on-rate constant (kon) worked out at 1.8e+06 M⁻¹ s⁻¹ and the “t1/2” value came to 18 s.

Consider B13, for which the koff was 0.165 s⁻¹, the on-rate constant (kon) was 2.4e+06 M⁻¹ s⁻¹ and the “t1/2” value is 4 s.

For B14, the Kd is 2.3 nM, the koff stood at 0.00592 s⁻¹, the on-rate constant (kon) worked out at 2.59e+06 M⁻¹ s⁻¹ and the “t1/2” value came out at 117 s.

As to B15, the koff was determined as 0.0031 s⁻¹, the on-rate constant (kon) came to 675000 M⁻¹ s⁻¹ and the “t1/2 (S)” value was 224 s.

Regarding B16, the koff came to 0.0366 s⁻¹, the kon amounted to 2.27e+06 M⁻¹ s⁻¹ and the “t1/2” value was 19 s.
